Legend:
[1] = biological target: T1, recombinant 10x His-tagged CD4 protein (extracellular domain of human CD4, GS linker, 10x histidine tag) (human, UniProt P01730 26-390); experiment: biolayer interferometry
T1 construct: also called recombinant CD4; sCD4 (analyte)

[2] = biological target: T1, recombinant 10x His-tagged CD4 protein …; experiment: biolayer interferometry KD against the previously estimated KD >2 mM between CD4 and HLA class II
[3] = biological target: T1, recombinant 10x His-tagged CD4 protein …; experiment: biolayer interferometry (Octet Red), biotinylated DP4 on streptavidin sensors, CD4 as analyte, steady-state analysis

Binder	binding result [1]	fold improvement in the binding affinity [2]	Kd [3]
biotinylated recombinant wild-type DP4 (extracellular domains of DPA1*01:03 and wild-type DPB1*04:01 with leucine zippers) (peptide-MHC, also called biotinylated wild-type DP4 (ligand)) MHC II alpha: IKADHVSTYAAFVQTHRPTGEFMFEFDEDEMFYVDLDKKETVWHLEEFGQAFSFEAQGGLANIAILNNNLNTLIQRSNHTQATNDPPEVTVFPKEPVELGQPNTLICHIDKFFPPVLNVTWLCNGELVTEGVAESLFLPRTDYSFHKFHYLTFVPSAEDFYDCRVEHWGLDQPLLKHWEAQEPIQMPETTETGGGGSLEIRAAFLRQRNTALRTEVAELEQEVQRLENEVSQYETRYGPLGGGKGSHHHHHHHHHH MHC II beta: RATPENYLFQGRQECYAFNGTQRFLERYIYNREEFARFDSDVGEFRAVTELGRPAAEYWNSQKDILEEKRAVPDRMCRHNYELGGPMTLQRRVQPRVNVSPSKKGPLQHHNLLVCHVTDFYPGSIQVRWFLNGQEETAGVVSTNLIRNGDWTFQILVMLEMTPQQGDVYTCQVEHTSLDSPVTVEWKAQSDSARSKGGGGSLEIEAAFLERENTALETRVAELRQRVQRLRNRVSQYRTRYGPLGGGKGSGLNDIFEAQKIEWHE	no binding (tested: 26 µM)		
biotinylated recombinant DP4^L112W/V141M (extracellular domains of DPA1*01:03 and DPB1*04:01 L112W/V (peptide-MHC, also called DPR^L112/V141M; biotinylated DP4^L112W/V141M (ligand)) MHC II alpha: IKADHVSTYAAFVQTHRPTGEFMFEFDEDEMFYVDLDKKETVWHLEEFGQAFSFEAQGGLANIAILNNNLNTLIQRSNHTQATNDPPEVTVFPKEPVELGQPNTLICHIDKFFPPVLNVTWLCNGELVTEGVAESLFLPRTDYSFHKFHYLTFVPSAEDFYDCRVEHWGLDQPLLKHWEAQEPIQMPETTETGGGGSLEIRAAFLRQRNTALRTEVAELEQEVQRLENEVSQYETRYGPLGGGKGSHHHHHHHHHH MHC II beta: RATPENYLFQGRQECYAFNGTQRFLERYIYNREEFARFDSDVGEFRAVTELGRPAAEYWNSQKDILEEKRAVPDRMCRHNYELGGPMTLQRRVQPRVNVSPSKKGPLQHHNWLVCHVTDFYPGSIQVRWFLNGQEETAGVMSTNLIRNGDWTFQILVMLEMTPQQGDVYTCQVEHTSLDSPVTVEWKAQSDSARSKGGGGSLEIEAAFLERENTALETRVAELRQRVQRLRNRVSQYRTRYGPLGGGKGSGLNDIFEAQKIEWHE		≥ 200 fold	8.9 µM
